Assay results: patent publication US20110008340A1 (published 2011)
Like-named read-outs stand apart in the source and are kept apart here.

Key:
[1] = target: Properdin peptide (71-110) …; test: ELISA saturation binding
human C3b [2] = target: T1, human C3b (human, UniProt P01024 23-667; P01024 749-1663); test: inhibition of properdin binding to C3b (ELISA)
human C3b [3] = target: T1, human C3b; test: inhibition of properdin binding to C3b (ELISA); remark: listed apart in the source

Properdin peptide (71-110) …, sequence (peptide, as listed by the source): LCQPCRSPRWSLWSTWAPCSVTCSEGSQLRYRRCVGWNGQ

B1: MoAb^71-110 (antibody, V domains shown)
VH: QVLLQQSAPELARPGASVKMSCTASGYIFTNYPIHWVKQRPGQGLEWIGFIDPGGGYDEPDERFRDRATLTADKSSSTAYMQLSSLTSEDSAIYYCARRGGGYYLDYWGQDTTLTVSA
VL: SIVMTQTPKFLLVSAGDRITITCKASQSVNNDVAWYQQKPGQSPKLLIYYASNRYTGVPDRFTGSGYGTDFTFTITTVKAEDLAVYFCQQDYSSPLTFGAGTKLELK
Q: Which Kd [1] does the source give for B1 here?
A: Its Kd is 161 nM.

Q: With CRSPRWSLWS [Properdin peptide CRSPRWSLWS (75-84)] as the binder, how does the IC50 (human C3b [2]) read?
A: Its IC50 is 322 µg/mL.

Q: Which IC50 (human C3b [3]) does the source give for RYRRCVGWNG [Properdin peptide RYRRCVGWNG (99-108)] here?
A: The IC50 was 301 µg/mL.
